From article PMC516168

Biological target: Mc-VHA-a fused to YFP (M. crystallinum)
Experiment: FRET or BRET; in vivo FRET (CFP donor, YFP acceptor, fused to C-termini) in co-transformed A. thaliana mesophyll protoplasts; excitation 458 nm; acceptor photobleaching at 514 nm; confocal microscopy

FRET efficiency: 0.45
Substance: Mc-VHA-c fused to CFP (natural protein)
